Experimental data: US20150010566A1

B1: AT10-001 (antibody, V domains shown)
VH: EVQLLESGGGLVQPGGSLRLSCAASGFSFSTYAMSWVRQAPGKGLEWVSGISGSGESTYYADSVKGRFTVSRDNSKNTLYLQMNSLRAEDTAVYYCAKQGDHIAWLLRGINFDYWGQGVLVTVSS
VL: EIVLTQSPGTLSLSPGERATLSCRASQSVSSSYLAWYQQKPGQAPRLLIYGASTRATGIPDRFSGRGSGTDFTLTISSLEPEDFAVYYCQNYGSPFLFTFGPGTKVDIKR
B2: AT10-004 (antibody, V domains shown)
VH: QVQLVQSGAEVRKPGASVKVSCKASGYTFTRHGISWVRQAPGQGLEWMGWISAYTGDTDYAQKFQGRVTMTTDTSTNTAYMELRSLRSDDAAVYYCARLRLQGEVVVPPSQSNWFDPWGQGTLVTVSS
VL: EIVLTQSPATLSLYPGERATLSCRASQSVSRYLAWYQQKPGQAPRLLIYDASNRATGIPARFSGSGSGTDFTLTISSLEPEDFAVYYCQQRSNWLKITFGQGTRLEIKG
B3: AT10-002 (antibody, V domains shown)
VH: QLQLQESGPRLVKPSETLSLTCSVSGVSISSSNYYWGWIRQPPGKGLEWIGTIYHSGSTYYNPSLKSRLIISVDTSKNQFYLQLTSLTAADSAVYYCATGGGFGWSQTYFGYWGQGTLVTASS
VL: QSALTQPASVSGSPGQSITISCTGTSSDVGAYNYVSWYQHHPGKAPKLMIYDVTYRPSGVSTRFSGSKSGNTASLTISGLQAEDEADYYCSSQSRSSTLVIFGGGTKLTVLG
B4: AT10-003 (antibody, V domains shown)
VH: QVHLVQSGAEVRKPGASVKVSCKVSGYTLNELSIHWLRQAPGRGLEWMGSFDPEDGETIYAQKFQGRVTMTGDTSTDTAYLELTSLRSEDTALYYCARGWGAVTSPFDFWGQGTLVTVSS
VL: DIVMTQSPLSLPVTPGEPASISCRSSQSLLHSNGHIYFDWYLQKPGQSPQLLIYLVSKRASGVPDRFSGSGSGTDFTLKISRVEAEDVGVYYCMQALETPFTFGPGTKVHIKR

Columns and labels:
Experiment in all cases: cell-based or functional assay
[1] = target: HA of high pathogenic H7N7 (A/Ch/Neth/621557/03), on infected MDCK cells or on virus (Influenza A virus H7N7 A/Ch/Neth/621557/03 (host Chicken))
[2] = target: HA of Influenza H3N2 (A/Swine/St. Oedenrode/1996), on infected MDCK cells or on virus (Influenza A virus H3N2 A/Swine/St. Oedenrode/1996 (host Swine))
[3] = target: HA of Influenza H1N1 (A/Neth/602/2009), on infected MDCK cells or on virus (Influenza A virus H1N1 A/Neth/602/2009 (host Human))
[4] = target: HA of Influenza H3N2 (A/Netherlands/177/2008), on infected MDCK-SIAT cells or on virus (Influenza A virus H3N2 A/Netherlands/177/2008)
[5] = target: HA of low pathogenic H7N1 (A/Ch/Italy/1067/1999), on infected MDCK cells or on virus (Influenza A virus H7N1 A/Ch/Italy/1067/1999 (host Chicken))
[6] = target: HA of Influenza H1N1 (A/Hawaii/31/2007), on infected MDCK-SIAT cells or on virus (Influenza A virus H1N1 A/Hawaii/31/2007)
[7] = target: HA of H5N1 A/turkey/Turkey/05 virus (Influenza A virus H5N1 A/turkey/Turkey/05)
[8] = target: HA of H3N2 HKX-31 virus (Influenza A virus H3N2 HKX-31)

Binder | IC50, in vitro virus neutralization on MDCK cells [1] [µg/mL] | IC50, in vitro virus neutralization on MDCK cells [2] [µg/mL] | IC50, in vitro virus neutralization on MDCK cells [3] [µg/mL] | IC50, in vitro virus neutralization on MDCK-SIAT cells [4] [µg/mL] | IC50, in vitro virus neutralization on MDCK cells [5] [µg/mL] | IC50, in vitro virus neutralization on MDCK-SIAT cells [6] [µg/mL] | IC50, in vitro virus neutralization on MDCK cells [7] [µg/mL] | IC50, in vitro virus neutralization on MDCK-SIAT cells [8] [µg/mL]
B1 | 0.4 | 14 | > 15 | 0.64 | > 15 |  |  | 
B2 | 0.2 | 2.3 | > 15 | 0.17 | 0.6 | > 50 | > 15 | 0.017
B3 | 0.1 | 0.3 | > 15 | 0.18 | 3.6 | > 15 |  | 
B4 | > 15 | > 15 | > 15 | > 50 | > 15 | > 15 |  | 
